# Data as given in paper PMC4040282 (Physical chemistry chemical physics : PCCP, 2014).
# Changes are numbered by the printed parent chain. Names and notes keep the numbering of the source. Where two headings read alike, the source gives them in different places.
# B1: Human wild-type IκBα(67-287) (domain or fragment, UniProt P25963 67-287, looked up)
# chain: KQQLTEDGDSFLHLAIIHEEKALTMEVIRQVKGDLAFLNFQNNLQQTPLHLAVITNQPEIAEALLGAGCDPELRDFRGNTPLHLACEQGCLASVGVLTQSCTTPHLHSILKATNYNGHTCLHLASIHGYLGIVELLVSLGADVNAQEPCNGRTALHLAVDLQNPDLVSLLLKCGADVNRVTYQGYSPYQLTWGRPSTRIQQQLGQLTLENLQMLPESEDEE
# B2: IκBα(67-287) P261F (domain or fragment, human, UniProt P25963 67-287, looked up)
# chain: B1 chain with P195F
# B3: IκBα(67-287) E282W (domain or fragment, human, UniProt P25963 67-287, looked up)
# chain: B1 chain with E216W
# Experiments:
# [1] = biological target: T1, N-terminal hexahistidine-NFκB (His6-p50(39-350)/RelA(19-321)) heterodimer (UniProt P25799 39-350; Q04207 19-321); assay: stopped-flow fluorescence
# [2] = biological target: (p50(248-350)/RelA(190-321)) heterodimer, biotinylated (murine, UniProt P25799 248-350; Q04207 190-321, biotin PEO maleimide (on the added N-terminal cysteine)); assay: SPR
# [3] = biological target: T1, N-terminal hexahistidine-NFκB …; assay: stopped-flow fluorescence; remark: listed apart in the source
binder,measurement,setting,value
B1,kon,[1],1.4e+07 M⁻¹ s⁻¹
same,Kd,[2],0.172 ± 0.004 nM
B2,kon,[1],1.4e+07 M⁻¹ s⁻¹
same,Kd,[2],0.462 ± 0.008 nM
B3,kon,[1],1.1e+07 M⁻¹ s⁻¹
same,kon,[3],3.8e+06 M⁻¹ s⁻¹
same,Kd,[2],0.155 ± 0.014 nM
